Experimental data reported in PMC5681985, “Conserved Molecular Mechanism of TyrA Dehydrogenase Substrate Specificity Underlying Alternative Tyrosine Biosynthetic Pathways in Plants and Microbes” (Frontiers in Molecular Biosciences, 2017).
Residue numbers refer to the chain shown, from its start. In names and notes the source's numbering stands.

Key:
OiTyrA (OiTyrAa) = biological target: T1, OiTyrA (OiTyrAa) (Brucella intermedia, UniProt C4WNJ2); format: biochemical
T1 construct: gene OINT_2001142
T1 sequence (C4WNJ2 1-269 limits assumed): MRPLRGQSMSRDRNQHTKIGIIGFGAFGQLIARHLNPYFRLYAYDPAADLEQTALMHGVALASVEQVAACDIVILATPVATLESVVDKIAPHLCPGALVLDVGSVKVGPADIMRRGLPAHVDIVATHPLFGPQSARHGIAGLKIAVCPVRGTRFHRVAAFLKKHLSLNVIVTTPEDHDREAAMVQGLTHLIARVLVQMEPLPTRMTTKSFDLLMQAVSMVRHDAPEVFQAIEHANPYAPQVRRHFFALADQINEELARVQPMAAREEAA

[1] = test system: T2, O=C(O)C(=O)CC1(C(=O)O)C=CC(O)C=C1; experiment: A340 reduced cofactor formation, Michaelis-Menten fit; format: biochemical, Methanothrix harundinacea; conditions: 25 mM HEPES pH 7.6, 50 mM KCl, 10% ethylene glycol
T2 construct: full-length, codon-optimized, N-terminal 6xHis tag (pET28a), E. coli Rosetta2 (DE3), HisTrap purified; monofunctional enzyme
Excerpt: (§1) A340 reduced cofactor formation, Michaelis-Menten fit on MhTyrA (MhTyrAp)

[2] = test system: T3, N[C@@H](CC1(C(=O)O)C=CC(O)C=C1)C(=O)O; experiment: as above; format: biochemical, Methanothrix harundinacea; conditions: 0.8 mM preferred cofactor (NADP+), 25 mM HEPES pH 7.6, 50 mM KCl, 10% ethylene glycol
T3 construct: full-length, codon-optimized, N-terminal 6xHis tag (pET28a), E. coli Rosetta2 (DE3), HisTrap purified; monofunctional enzyme
Excerpt: as §1

[3] = substrate: N[C@@H](CC1(C(=O)O)C=CC(O)C=C1)C(=O)O; experiment: as above; format: biochemical, Sediminispirochaeta smaragdinae; conditions: 25 mM HEPES pH 7.6, 50 mM KCl, 10% ethylene glycol
Excerpt: (§2) A340 reduced cofactor formation, Michaelis-Menten fit on SsTyrA (SsTyrAa)

[4] = substrate: O=C(O)C(=O)CC1(C(=O)O)C=CC(O)C=C1; experiment: as above; format: biochemical, Sediminispirochaeta smaragdinae; conditions: 0.8 mM preferred cofactor, 25 mM HEPES pH 7.6, 50 mM KCl, 10% ethylene glycol
Excerpt: as §2

[5] = 0.8 mM preferred cofactor (NADP+)
[6] = 0.8 mM preferred cofactor (NAD+ slightly preferred)

NC(=O)c1ccc[n+]([C@@H]2O[C@H](COP(=O)(O)OP(=O)(O)OC[C@H]3O[C@@H](n4cnc5c(N)ncnc54)[C@H](O)[C@@H]3O)[C@@H](O)[C@H]2O)c1 [NAD^+]
HPLC product assay, 45 min (OiTyrA (OiTyrAa)): strongly preferred NAD^+ over NADP^+ cofactor

N[C@@H](CC1(C(=O)O)C=CC(O)C=C1)C(=O)O (some centres unmarked) [arogenate]
HPLC product assay, 45 min (OiTyrA (OiTyrAa)): E. coli cell lysate expressing OiTyrA had ADH but not PDH activity

MhTyrA (MhTyrAp) (Methanothrix harundinacea)
Km ([1]; 0.8 mM NADP+): 378 ± 20 µM
kcat ([1]; 0.8 mM NADP+): 2.44 ± 0.38 s⁻¹
kcat/Km ([1]; 0.8 mM NADP+): 6440 ± 540 M⁻¹ s⁻¹

MhTyrA (MhTyrAp) (Methanothrix harundinacea; Q227E)
Km [2]: 3290 ± 220 µM
kcat [2]: 0.704 ± 0.03 s⁻¹
kcat/Km [2]: 213 ± 50 M⁻¹ s⁻¹
Km [1, 5]: 2669 ± 320 µM
kcat [1, 5]: 0.285 ± 0.02 s⁻¹
kcat/Km [1, 5]: 107 ± 40 M⁻¹ s⁻¹

B1: SsTyrA (SsTyrAa) (Sediminispirochaeta smaragdinae DSM 11293) (protein)
chain: MVEHTVGIYGLGRFGSFWAKSLAASGLKVIGYNRSKRALPEGVVSGSETEVLSCNTLFYCVAISSFEEVLSRTAAKIGKHTLVFDTCSVKVEPVRTMERLLPQGCTFAGSHPMFGPDSASEGMDGLPMVLCPGRDDEGKVDFWRHHFSKMGLRVIEITADRHDKEAAYTQGITHVVGRILGELDLHESEIATSGYKRLLQVREQTCNDPLQLFIDLQRYNPYTHGMRMELTSALEQIMTLFAQADLPPDRP
notes: full-length, codon-optimized, N-terminal 6xHis tag (pET28a), E. coli Rosetta2 (DE3), HisTrap purified
Km [3, 6]: 901 ± 150 µM
kcat [3, 6]: 3.44 ± 0.31 s⁻¹
kcat/Km [3, 6]: 4030 ± 1010 M⁻¹ s⁻¹

B2: SsTyrA (SsTyrAa) (Sediminispirochaeta smaragdinae DSM 11293; D208N) (protein)
chain: B1 chain with D208N
notes: as for B1
Km ([3]; 0.8 mM preferred cofactor): 847 ± 160 µM
kcat ([3]; 0.8 mM preferred cofactor): 0.45 ± 0.01 s⁻¹
kcat/Km ([3]; 0.8 mM preferred cofactor): 568 ± 140 M⁻¹ s⁻¹
Km [4]: 1742 ± 630 µM
kcat [4]: 0.863 ± 0.12 s⁻¹
kcat/Km [4]: 587 ± 400 M⁻¹ s⁻¹
